Patent US20060115482A1, “Modifications of histone proteins as indicators of cell proliferation and differentiation” (The Regents of the University of California, priority 2004, published 2006)

Legend:
H2B-S33 = experiment: In vitro kinase assay (γ32P-ATP, SDS-PAGE, autoradiography, scintillation counting); format: biochemical, Drosophila; details: for H2B phosphorylation in vitro (qualitative): autoradiography; for Turnover values for phosphorylation of H2B-S33: 3 μg enzyme
Experimental: Kinase reactions were programmed with 1 μg RAP74, 1 μg recombinant histone, 2 μg polynucleosomes, 2 μg histone octamers, or 300 ng histone peptide, and contained 400 ng endogenous TFIID or 250 ng recombinant TAF1 derivatives and 0.25 μCi γ^32P-ATP. Reactions were performed in 20 μl kinase buffer (25 mM Hepes (pH 7.6), 10% glycerol, and 400 mM NaCl) for 25 min at 25° C. Reaction products were analyzed by SDS-PAGE using 8%—(for recombinant proteins), 15%—(for histones), or 18% (for peptides) gels. After electrophoresis, gels were dried and exposed to X-ray film.
To quantify kinase reactions, reactions products were separated by SDS-PAGE and detected by coomassie blue staining. Radiolabeled H2B was detected by autoradiography, excised from the gel, and analyzed by scintillation counting.
To measure the kinase activity of TFIID, TAF1, CTK, and mutant CTK-derivatives, reaction products of in vitro kinase assays were separated by SDS-PAGE and stained with coomassie blue. Radiolabeled H2B, H2BT and controls were excised from the gel and incorporation of radioactivity was determined by scintillation counting. Turnover values for phosphorylation of H2B-S33 were determined by measuring incorporation of radiolabeled phosphate groups into H2B in the presence of 3 μg TAF1, TFIID, or CTK-derivatives and 3 μg H2B or 12 μg nucleosomes. The turnover values were: TFIID (nucleosomes: 3.3/sec; H2B: 2.6/sec); TAF1: (nucleosomes: 2.5/sec; H2B: 2.5/sec); CTK: (nucleosomes: 2.6/sec; H2B: 4.4/sec).

acetylated H4 = biological target: T1, acetylated H4 (Homo sapiens, UniProt P62805); experiment: Acetylated-lysine interaction assay; format: binding; details: H4 peptide acetylated at lysine 5, 8, 12, 16
T1 construct: H4 peptide (amino acids 1-20); host or cells: H4 peptide made by chemical synthesis; Flag-CTK proteins made in Sf9 cells with baculovirus
Experimental: FIG. 6. (A) Silver stained gel corresponding to the autoradiograms shown inn FIG. 2B) of in vitro kinase assays containing γ^32P-ATP, native nucleosomes (top) or recombinant H2B (bottom), and TFIID, TAF1, or TAF1 derivatives (B) CTK(D1548A) binds acetylated histone H4. Western blot of protein:protein interaction assays. Anti-Flag antibody agarose beads loaded with recombinant Flag-CTK, Flag-CTK(D1548), or FLAG-110 (beads) were incubated with H4 peptide (amino acids 1-20) or H4 peptide [acetyl(H4)] acetylated at lysine 5, 8, 12, 16. Precipitated peptides were separated by SDS-PAGE, electrophoretically transferred onto nitrocellulose, and detected using antibodies to H4 (top) and acetylated H4 (bottom). (C) The CTK phosphorylates serine residues in H2BT. A schematic representation of H2BT is shown on top with highlighted positions of threonines (T) and serines (S). […]
The interaction of CTK and CTK(D1548A) with unmodified and acetylated H4 peptides was monitored as described (14, 15). […]

Row | Molecule | H2B phosphorylation in vitro (qualitative) (H2B-S33) | Turnover values for phosphorylation of H2B-S33 (H2B-S33; substrate 3 μg H2B) [s⁻¹] | Turnover values for phosphorylation of H2B-S33 (H2B-S33; substrate 12 μg nucleosomes) [s⁻¹] | binding to acetylated H4 in vitro (acetylated H4)
1 | CTK: COOH-terminal kinase domain of Drosophila TAF1, amino acids 1496-2132 (protein) LFPVSAKKVPDYYRVVTKPMDLQTMREYIRQRRYTSREMFLEDLKQIVDNSLIYNGPQSAYTLAAQRMFSSCFELLAEREDKLMRLEKAINPLLDDDDQVALSFIFDKLHSQIKQLPESWPFLKPVNKKQVKDYYTVIKRPMDLETIGKNIEAHRYHSRAEYLADIELIATNCEQYNGSDTRYTKFSKKILEYAQTQLIEFSEHCGQLENNIAKTQERARENAPEFDEAWGNDDYNFDRGSRASSPGDDYIDVEGHGGHASSSNSIHRSMGAEAGSSHTAPAVRKPAPPGPGEVKRGRGRPRKQRDPVEEVKSQNPVKRGRGRPRKDSLASNMSHTQAYFLDEDLQCSTDDEDDDEEEDFQEVSEDENNAASILDQGERINAPADAMDGMFDPKNIKTEIDLEAHQMAEEPIGEDDSQQVAEAMVQLSGVGGYYAQQQQDESMDVDPNYDPSDFLAMHKQRQSLGEPSSLQGAFTNFLSHEQDDNGPYNPAEASTSAASGADLGMDASMAMQMAPEMPVNTMNNGMGIDDDLDISESDEEDDGSRVRIKKEVFDDGDYALQHQQMGQAASQSQIYMVDSSNEPTTLDYQQPPQLDFQQVQEMEQLQHQVMPPMQSEQLQQQQTPQGDNDYAWTF | strongly phosphorylated H2B | 4.4 | 2.6 | 
2 | CTK(D1538A): CTK with catalytically important aspartic acid of the S/T-kinase motif mutated to alanine (protein) LFPVSAKKVPDYYRVVTKPMDLQTMREYIRQRRYTSREMFLEALKQIVDNSLIYNGPQSAYTLAAQRMFSSCFELLAEREDKLMRLEKAINPLLDDDDQVALSFIFDKLHSQIKQLPESWPFLKPVNKKQVKDYYTVIKRPMDLETIGKNIEAHRYHSRAEYLADIELIATNCEQYNGSDTRYTKFSKKILEYAQTQLIEFSEHCGQLENNIAKTQERARENAPEFDEAWGNDDYNFDRGSRASSPGDDYIDVEGHGGHASSSNSIHRSMGAEAGSSHTAPAVRKPAPPGPGEVKRGRGRPRKQRDPVEEVKSQNPVKRGRGRPRKDSLASNMSHTQAYFLDEDLQCSTDDEDDDEEEDFQEVSEDENNAASILDQGERINAPADAMDGMFDPKNIKTEIDLEAHQMAEEPIGEDDSQQVAEAMVQLSGVGGYYAQQQQDESMDVDPNYDPSDFLAMHKQRQSLGEPSSLQGAFTNFLSHEQDDNGPYNPAEASTSAASGADLGMDASMAMQMAPEMPVNTMNNGMGIDDDLDISESDEEDDGSRVRIKKEVFDDGDYALQHQQMGQAASQSQIYMVDSSNEPTTLDYQQPPQLDFQQVQEMEQLQHQVMPPMQSEQLQQQQTPQGDNDYAWTF | weak autophosphorylation and H2B trans-phosporylation activities |  |  | retains the ability to bind acetylated H4 in vitro
